According to patent publication US20150150950:

How the values were obtained:
[1] = system: inactive wildtype GST-GSK3β (K^84A kinase inactivating mutation)
[2] = system: GST-GSK3β T^390A mutant (kinase inactive, K^84A)
[3] = system: purified active wildtype GST-GSK3β
[4] = system: Recombinant kinase-active GSK3α
[5] = system: GST-GSK3α (Cell Signaling, boiled to inactivate)
[6] = system: active GST-GSK3β-T^43A mutant
[7] = system: GST-GSK3β T^390A/T^43A double mutant (kinase inactive, K^84A)
[8] = system: GST-GSK3β T^43A mutant (kinase inactive, K^84A)
[9] = system: active GST-GSK3β-T^390A mutant

Chain of purified recombinant active p38 MAPK (Cell Signaling) (Q16539 2-360): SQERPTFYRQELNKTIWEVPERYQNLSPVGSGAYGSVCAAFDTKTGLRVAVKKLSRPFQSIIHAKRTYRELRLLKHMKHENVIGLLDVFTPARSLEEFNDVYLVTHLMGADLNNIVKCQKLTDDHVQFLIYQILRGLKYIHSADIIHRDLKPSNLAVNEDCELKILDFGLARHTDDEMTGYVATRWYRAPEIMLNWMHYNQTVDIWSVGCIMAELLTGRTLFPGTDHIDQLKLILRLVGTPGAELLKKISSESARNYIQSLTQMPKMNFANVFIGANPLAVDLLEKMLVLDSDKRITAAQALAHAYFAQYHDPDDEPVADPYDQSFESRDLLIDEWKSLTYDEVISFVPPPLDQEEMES
Chain of Recombinant kinase-active GSK3α (P49840 2-483): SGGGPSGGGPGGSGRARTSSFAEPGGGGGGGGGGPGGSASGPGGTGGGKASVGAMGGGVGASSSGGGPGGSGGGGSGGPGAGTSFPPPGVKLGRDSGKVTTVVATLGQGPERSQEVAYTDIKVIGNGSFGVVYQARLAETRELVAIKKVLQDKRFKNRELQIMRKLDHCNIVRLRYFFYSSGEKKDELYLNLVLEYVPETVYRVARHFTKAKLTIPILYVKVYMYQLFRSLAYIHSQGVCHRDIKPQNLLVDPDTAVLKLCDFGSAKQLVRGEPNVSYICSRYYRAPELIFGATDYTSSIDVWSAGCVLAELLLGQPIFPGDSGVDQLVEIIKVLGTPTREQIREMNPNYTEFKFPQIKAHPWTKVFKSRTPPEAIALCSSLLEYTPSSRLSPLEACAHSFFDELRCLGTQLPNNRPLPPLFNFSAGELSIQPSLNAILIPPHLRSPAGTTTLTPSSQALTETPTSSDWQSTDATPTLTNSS
Chain of p38 MAPK in 293T cells (Q16539 2-360): as the sequence (Q16539 2-360) above

Question: For p38 MAPK in 293T cells, which “in vitro p38 MAP kinase assay (^32P incorporation into GSK3β)” value [1] is on record?
Answer: p38 MAPK immunoprecipitated from MKK6 thymocytes or MKK6-transfected 293T cells phosphorylated recombinant catalytically-inactive GSK3β in vitro and this phosphorylation was blocked by the p38 MAPK inhibitor

Question: How did the “in vitro kinase assay (^32P incorporation)” value [2] turn out when “purified recombinant active p38 MAPK (Cell Signaling)” was run?
Answer: Phosphorylation of the GSK3β-T^390A mutant by p38 MAPK was partially reduced but not abrogated

Question: What about the “in vitro kinase assay (^32P incorporation into GSK3β)” value [1] of the same substance?
Answer: A purified recombinant activated p38 MAPK also phosphorylated GSK3β in vitro and this phosphorylation was blocked by SB203580

Question: What about the “GSK3β activity (in vitro kinase assay, GSM substrate peptide) after preincubation with p38 MAPK” value [3] of the same substance?
Answer: p38 MAPK inhibited both wild-type GSK3β and GSK3β-T^43A mutant

Question: What about the “GSK3α activity (in vitro kinase assay, GSM substrate peptide) after preincubation with p38 MAPK” value [4] of the same substance?
Answer: p38 MAPK did not affect the activity of GSK3α

Question: What about the “in vitro kinase assay (^32P incorporation into GSK3α)” value [5] of the same substance?
Answer: GSK3α was not phosphorylated by recombinant p38 MAPK in vitro

Question: What about the “GSK3β activity (in vitro kinase assay, GSM substrate peptide) after preincubation with p38 MAPK” value [6] of the same substance?
Answer: p38 MAPK inhibited both wild-type GSK3β and GSK3β-T^43A mutant

Question: And the “in vitro kinase assay (^32P incorporation)” value [7]?
Answer: phosphorylation of the GSK3β-T^43A/T^390A mutant was abrogated

Question: What about the “in vitro kinase assay (^32P incorporation)” value [8] of the same substance?
Answer: p38 MAPK was still able to partially phosphorylate a GSK3β-T^43A mutant

Question: With recombinant active Akt (Cell Signaling) as the substance, how does the “GSK3β activity (in vitro kinase assay, GSM substrate peptide) after preincubation with Akt” value (“GSK3β activity … with Akt” for short) [3] read?
Answer: Akt inhibited wild-type GSK3β and the two mutants

Question: What about the “GSK3β activity … with Akt” value [9] of the same substance?
Answer: Akt inhibited wild-type GSK3β and the two mutants

Question: And the “GSK3β activity … with Akt” value [6]?
Answer: Akt inhibited wild-type GSK3β and the two mutants

Question: Which “in vitro kinase assay (^32P incorporation)” value [2] does the source give for recombinant active ERK (Cell Signaling) here?
Answer: The T^43A mutation but not the T^390A mutation abrogated phosphorylation of GSK3β by ERK

Question: What about the “in vitro kinase assay (^32P incorporation)” value [8] of the same substance?
Answer: The T^43A mutation but not the T^390A mutation abrogated phosphorylation of GSK3β by ERK
